# Test results: PMC11564870
# T1: Monbr Sox-like HMG (Monosiga brevicollis, UniProt A9VCR9 107-175)
# T1 sequence: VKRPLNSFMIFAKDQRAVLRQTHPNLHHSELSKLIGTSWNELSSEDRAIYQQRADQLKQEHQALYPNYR
# B1: SoxOct canonical (dsDNA)
# DNA 1: GCGGCATTGTCATGCAAATCGGCGG
# DNA 2: CCGCCGATTTGCATGACAATGCCGC
# B2: Sox consensus (dsDNA)
# DNA 1: GGCGGCGGCATTGTCCGGCGCGCGG
# DNA 2: CCGCGCGCCGGACAATGCCGCCGCC
# Experiments:
# [1] = target: mOct4 POU;mSox2 HMG (mouse;mouse, UniProt P20263;P48432 131-282;41-119, |); assay: EMSA
# [2] = target: T1, Monbr Sox-like HMG; assay: EMSA
# mOct4 POU;mSox2 HMG, sequence (P20263 131-282, chain 1 of 2): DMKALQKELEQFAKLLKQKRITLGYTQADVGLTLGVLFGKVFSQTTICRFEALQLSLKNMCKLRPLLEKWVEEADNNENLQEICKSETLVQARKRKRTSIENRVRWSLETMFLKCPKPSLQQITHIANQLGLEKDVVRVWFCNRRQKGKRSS
# mOct4 POU;mSox2 HMG, sequence (P48432 41-119, chain 2 of 2): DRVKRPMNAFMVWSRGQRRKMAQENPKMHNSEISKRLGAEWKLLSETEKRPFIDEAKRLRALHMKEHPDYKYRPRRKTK
Binder,binding result [1],binding result [2]
B1,binds,
B2,,no binding
